Common to all, as to experiment: cell-based or functional assay
The target in test [1] is CLDN18.1 (human) (UniProt P56856).
The target of test [2] is CLDN18.2 (human), P56856.
The target in test [3] is CLDN18.2 (human), P56856. This is another data set of the same source.

Read-outs that look alike come from different tables or passages of the source.

B1: 21050 chimeric antigen receptor (on CAR-T cells) (protein, part only; not given: hinge, transmembrane and signalling parts, part only)
chain, part: QVQLQQPGAELVRPGASVKLSCKASGYTFTSYWINWVKQRPGQGLEWIGNIYPSDSYTNYNQKFKDKATLTVDKSSSTAYMQLSSPTSEDSAVYYCTRSWRGNSFDYWGQGTTLTVSSGGGGSGGGGSGGGGSDIVMTQSPSSLTVTAGEKVTMSCKSSQSLLNSGNQKNYLTWYQQKPGQPPKLLIYWASTRESGVPDRFTGSGSGTDFTLTISSVQAEDLAVYYCQNDYSYPFTFGSGTKLEIK
As to B1, in test [1], the cytokine secretion (IFN-γ) is under 100 µg/mL.

B2: 21009 chimeric antigen receptor (on CAR-T cells) (protein, part only; not given: hinge, transmembrane and signalling parts, part only)
chain, part: EVQVVESGGGLVQPGGSLRLSCAASGNIFRTDIGMWYRQAPGKGRELVAGTTTGRSGYVDKASIGRFTISRDNAKNTMYLQMNSLRAEDTAVYYCNAYGVWEQTPFDALRWGQGTLVTVSS
In turn, B2 returned a cytokine secretion (IFN-γ) in test [1] of under 100 µg/mL.

B3: 21047 chimeric antigen receptor (on CAR-T cells) (protein)
chain: QVQLVESGGGLVQPGGSLRLSCAASGSIFNIPVMGWYRQAPGKQRELVAGISTGGTTNYGDSVKGRFTISRDNAKNTVYLQMNSLKPEDTAVYYCNVLVVSGIGSTLEVWGQGTLVTVSSIEVMYPPPYLDNEKSNGTIIHVKGKHLCPSPLFPGPSKPFWVLVVVGGVLACYSLLVTVAFIIFWVRSKRSRLLHSDYMNMTPRRPGPTRKHYQPYAPPRDFAAYRSRVKFSRSADAPAYQQGQNQLYNELNLGRREEYDVLDKRRGRDPEMGGKPRRKNPQEGLYNELQKDKMAEAYSEIGMKGERRRGKGHDGLYQGLSTATKDTYDALHMQALPPR
For the molecule B3, the values for the IFN-γ secretion levels in test [2] and in test [3] were over 10000 pg/mL and over 5000 pg/mL, respectively.

B4: 21011 chimeric antigen receptor (on CAR-T cells) (protein, part only; not given: hinge, transmembrane and signalling parts, part only)
chain, part: EVQLVESGGGLVQPGGSLRLSCAASGSIFSVNGIMWYRQAPGKQRELVAARYTGSVIDSGKTGTGRFTISRDNAKNTLYLQMNSLRAEDTAVYYCNAPTAALTRVEWDVYSLWGQGTLVTVSS
As for B4, in test [1], the cytokine secretion (IFN-γ) was under 100 µg/mL.

Values taken from patent US20250319129A1.
